Molecular target: α4 laminin fragment G^919-1207 (SEQ ID NO:13) (human), Q16363
Assay: solid-phase saturation binding ELISA: coated G^919-1207 at varying concentrations, soluble integrin at 5 ng/µl, detected with LM609

α4 laminin fragment G^919-1207 (SEQ ID NO:13) (human), Q16363, sequence (Q16363 926-1214 G1117S/P1119X limits assumed): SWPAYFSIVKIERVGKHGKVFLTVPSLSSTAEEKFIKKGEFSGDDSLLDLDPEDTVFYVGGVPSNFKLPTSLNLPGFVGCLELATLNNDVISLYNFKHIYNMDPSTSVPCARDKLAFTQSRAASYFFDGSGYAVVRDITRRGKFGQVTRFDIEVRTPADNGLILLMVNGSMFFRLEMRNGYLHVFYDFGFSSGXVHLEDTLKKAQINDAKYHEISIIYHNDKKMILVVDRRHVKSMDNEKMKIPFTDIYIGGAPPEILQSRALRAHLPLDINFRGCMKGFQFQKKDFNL

Kd: 4 nM
B1: soluble αvβ3 integrin heterodimer (Chemicon International), P06756 31-992; P05106 27-718 (receptor)
chain 1: FNLDVDSPAEYSGPEGSYFGFAVDFFVPSASSRMFLLVGAPKANTTQPGIVEGGQVLKCDWSSTRRCQPIEFDATGNRDYAKDDPLEFKSHQWFGASVRSKQDKILACAPLYHWRTEMKQEREPVGTCFLQDGTKTVEYAPCRSQDIDADGQGFCQGGFSIDFTKADRVLLGGPGSFYWQGQLISDQVAEIVSKYDPNVYSIKYNNQLATRTAQAIFDDSYLGYSVAVGDFNGDGIDDFVSGVPRAARTLGMVYIYDGKNMSSLYNFTGEQMAAYFGFSVAATDINGDDYADVFIGAPLFMDRGSDGKLQEVGQVSVSLQRASGDFQTTKLNGFEVFARFGSAIAPLGDLDQDGFNDIAIAAPYGGEDKKGIVYIFNGRSTGLNAVPSQILEGQWAARSMPPSFGYSMKGATDIDKNGYPDLIVGAFGVDRAILYRARPVITVNAGLEVYPSILNQDNKTCSLPGTALKVSCFNVRFCLKADGKGVLPRKLNFQVELLLDKLKQKGAIRRALFLYSRSPSHSKNMTISRGGLMQCEELIAYLRDESEFRDKLTPITIFMEYRLDYRTAADTTGLQPILNQFTPANISRQAHILLDCGEDNVCKPKLEVSVDSDQKKIYIGDDNPLTLIVKAQNQGEGAYEAELIVSIPLQADFIGVVRNNEALARLSCAFKTENQTRQVVCDLGNPMKAGTQLLAGLRFSVHQQSEMDTSVKFDLQIQSSNLFDKVSPVVSHKVDLAVLAAVEIRGVSSPDHVFLPIPNWEHKENPETEEDVGPVVQHIYELRNNGPSSFSKAMLHLQWPYKYNNNTLLYILHYDIDGPMNCTSDMEINPLRIKISSLQTTEKNDTVAGQGERDHLITKRDLALSEGDIHTLGCGVAQCLKIVCQVGRLDRGKSAILYVKSLLWTETFMNKENQNHSYSLKSSASFNVIEFPYKNLPIEDITNSTLVTTNVTWGIQPAPMPV
chain 2: GPNICTTRGVSSCQQCLAVSPMCAWCSDEALPLGSPRCDLKENLLKDNCAPESIEFPVSEARVLEDRPLSDKGSGDSSQVTQVSPQRIALRLRPDDSKNFSIQVRQVEDYPVDIYYLMDLSYSMKDDLWSIQNLGTKLATQMRKLTSNLRIGFGAFVDKPVSPYMYISPPEALENPCYDMKTTCLPMFGYKHVLTLTDQVTRFNEEVKKQSVSRNRDAPEGGFDAIMQATVCDEKIGWRNDASHLLVFTTDAKTHIALDGRLAGIVQPNDGQCHVGSDNHYSASTTMDYPSLGLMTEKLSQKNINLIFAVTENVVNLYQNYSELIPGTTVGVLSMDSSNVLQLIVDAYGKIRSKVELEVRDLPEELSLSFNATCLNNEVIPGLKSCMGLKIGDTVSFSIEAKVRGCPQEKEKSFTIKPVGFKDSLIVQVTFDCDCACQAQAEPNSHRCNNGNGTFECGVCRCGPGWLGSQCECSEEDYRPSQQDECSPREGQPVCSQRGECLCGQCVCHSSDFGKITGKYCECDDFSCVRYKGEMCSGHGQCSCGDCLCDSDWTGYYCNCTTRTDTCMSSNGLLCSGRGKCECGSCVCIQPGSYGDTCEKCPTCPDACTFKKECVECKKFDRGALHDENTCNRYCRDEIESVKELKDTGKDAVNCTYKNEDDCVVRFQYYEDSSGKSILYVVEEPECPKGPD
